Results reported in US20260159551A1 (SRI INTERNATIONAL, published 2026).
Ends that are not written are not given here.

Columns and labels:
[1] = molecular target: T1, Recombinant human transferrin receptor (human, UniProt P02786 89-760, limits assumed); experiment: ELISA: recombinant human transferrin receptor coated at 1 ug/mL, biotinylated peptide titrated, detection with streptavidin-HRP/TMB, absorbance at 450 nm
T1 construct: Recombinant protein; also called transferrin receptor (human protein)
T1 sequence (P02786 89-760 limits assumed): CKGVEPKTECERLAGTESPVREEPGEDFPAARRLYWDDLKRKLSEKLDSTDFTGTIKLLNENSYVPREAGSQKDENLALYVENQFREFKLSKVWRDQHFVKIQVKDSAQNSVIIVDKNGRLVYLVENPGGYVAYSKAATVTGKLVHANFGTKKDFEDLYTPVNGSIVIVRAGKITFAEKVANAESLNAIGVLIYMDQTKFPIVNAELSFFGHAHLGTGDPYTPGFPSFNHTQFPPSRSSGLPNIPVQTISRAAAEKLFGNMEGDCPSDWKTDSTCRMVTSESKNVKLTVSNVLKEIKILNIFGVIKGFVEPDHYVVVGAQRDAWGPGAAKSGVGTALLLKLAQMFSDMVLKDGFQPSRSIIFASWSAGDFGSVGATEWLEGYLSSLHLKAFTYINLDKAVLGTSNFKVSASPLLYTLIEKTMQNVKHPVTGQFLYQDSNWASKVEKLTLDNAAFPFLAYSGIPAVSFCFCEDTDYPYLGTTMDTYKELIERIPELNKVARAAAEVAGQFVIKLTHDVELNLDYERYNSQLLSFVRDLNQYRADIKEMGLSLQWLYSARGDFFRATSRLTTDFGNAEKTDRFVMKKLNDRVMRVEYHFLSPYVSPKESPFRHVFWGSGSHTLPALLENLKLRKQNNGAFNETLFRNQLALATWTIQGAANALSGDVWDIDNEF
Description: (§1) Recombinant human transferrin receptor was absorbed onto high binding ELISA plates at 1 μg/mL. […] Retained MTS peptide was detected using streptavidin-HRP and TMB reagent. The absorbance was measured at 450 nm and is proportional to the amount of MTS peptide captured by transferrin receptor. As shown, MTS2_V1-2 binds to […] in a concentration dependent manner which saturates at higher concentrations. By comparison, MTS3_V1-2 and a scrambled control peptide of MTS2_V1-2 show no binding. The binding affinity of MTS2_V1-2 for transferrin receptor was determined by biolayer interferometry on a OctetRED 96 system. The biotinylated MTS2_V1-2 peptide was captured on streptavidin probe. The kon and koff rate were determined at various concentrations of human or mouse transferrin receptor allowing for determination of the dissociation constant.

[2] = molecular target: T1, Recombinant human transferrin receptor; experiment: biolayer interferometry (OctetRED 96); biotinylated peptide on streptavidin probe, receptor as analyte; human transferrin receptor
Description: as §1

[3] = molecular target: T2, Mouse transferrin receptor (mouse, UniProt Q62351 89-763, limits assumed); experiment: biolayer interferometry (OctetRED 96); biotinylated peptide on streptavidin probe, receptor as analyte; mouse transferrin receptor
T2 construct: Used as the analyte in BLI; also called mouse receptor
T2 sequence (Q62351 89-763 limits assumed): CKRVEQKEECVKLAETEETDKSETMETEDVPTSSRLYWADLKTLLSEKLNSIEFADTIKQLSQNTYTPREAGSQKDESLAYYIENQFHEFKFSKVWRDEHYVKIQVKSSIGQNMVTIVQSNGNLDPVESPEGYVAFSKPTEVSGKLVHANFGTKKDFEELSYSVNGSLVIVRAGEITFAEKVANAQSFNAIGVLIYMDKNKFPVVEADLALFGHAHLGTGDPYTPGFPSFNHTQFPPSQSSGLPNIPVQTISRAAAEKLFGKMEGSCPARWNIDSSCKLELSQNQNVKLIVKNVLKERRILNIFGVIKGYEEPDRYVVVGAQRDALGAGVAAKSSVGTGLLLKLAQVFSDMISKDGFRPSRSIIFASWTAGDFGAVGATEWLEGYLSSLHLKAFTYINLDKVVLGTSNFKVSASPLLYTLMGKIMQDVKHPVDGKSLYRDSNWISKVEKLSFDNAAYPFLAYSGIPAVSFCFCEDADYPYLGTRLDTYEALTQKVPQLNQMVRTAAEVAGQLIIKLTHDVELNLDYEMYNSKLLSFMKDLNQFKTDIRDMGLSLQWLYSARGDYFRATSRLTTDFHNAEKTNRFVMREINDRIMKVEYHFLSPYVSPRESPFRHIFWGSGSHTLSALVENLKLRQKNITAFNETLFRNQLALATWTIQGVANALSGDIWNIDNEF
Description: as §1

| binding result [1] | Kd [2] | Kd [3] | EC50 (read off the curve) [1] | Binder |
| --- | --- | --- | --- | --- |
| no binding (tested: 1000 nM) | – | – | – | Ac-SKETYSMNAQRQHERS (also: dimer: C-terminus joined through a linker to a dimeric core, biotinylated, place not given here, Biotinylated for the ELISA; also called dimer version of MTS3_V1; biotinylated MTS3_V1-2) [MTS3_V1-2 (biotinylated dimeric Ac-SKETYSMNAQRQHERS)] |
| – | 210 nM | 12 nM | ~100 nM | Ac-FPSWTSKNQQWTNQRQ (also: dimer: C-terminus joined through a linker to a dimeric core, biotinylated, place not given here, Biotinylated for the ELISA and for capture on the streptavidin probe in BLI; also called dimer version of MTS2_V1; biotinylated MTS2_V1-2) [MTS2_V1-2 (biotinylated dimeric Ac-FPSWTSKNQQWTNQRQ)] |
